Assay results taken from US20150203577A1 (Chugai, published 2015).

Columns and labels:
[1] = target: T1, mouse FcγRII (mouse, UniProt P08101 30-210); assay: SPR (Biacore T200); KD of H237-MB630/MRAL-k0 / KD of variant
T1 construct: Extracellular domain with C-terminal His tag; also called mFcγRII; mFcgRII
T1 sequence: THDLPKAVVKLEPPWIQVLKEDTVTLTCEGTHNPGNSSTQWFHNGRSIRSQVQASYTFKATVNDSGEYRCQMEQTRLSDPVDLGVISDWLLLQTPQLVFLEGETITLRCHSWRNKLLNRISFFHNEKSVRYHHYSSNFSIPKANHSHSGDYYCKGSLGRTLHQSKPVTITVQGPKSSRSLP

[2] = target: T2, mouse FcγRIII (mouse, UniProt P08508 31-215); assay: as above
T2 construct: Extracellular domain with C-terminal His tag; also called mFcγRIII; mFcgRIII
T2 chain: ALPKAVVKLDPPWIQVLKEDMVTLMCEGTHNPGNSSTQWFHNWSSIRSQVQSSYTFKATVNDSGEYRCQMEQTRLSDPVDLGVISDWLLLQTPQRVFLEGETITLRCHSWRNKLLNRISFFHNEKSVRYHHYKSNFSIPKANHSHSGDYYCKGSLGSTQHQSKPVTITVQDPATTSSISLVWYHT

[3] = target: T1, mouse FcγRII; assay: SPR (Biacore T200); KD of H237-mIgG1/MRAL-k0 / KD of variant
[4] = target: T2, mouse FcγRIII; assay: as above

B1: MB785 (antibody, mouse IgG1, kappa)
heavy: QVQLQESGPGLVKPSETLSLTCAVSGHSISHDHAWSWVRQPPGEGLEWIGFISYSGITNYNPSLQGRVTISRDNSKNTLYLQMNSLRAEDTAVYYCARSLARTTAMDYWGEGTLVTVSSAKTTPPSVYPLAPGSAAQTNSMVTLGCLVKGYFPEPVTVTWNSGSLSSGVHTFPAVLQSDLYTLSSSVTVPSSTWPSETVTCNVAHPASSTKVDKKIVPRDCGCKPCICEPNEVELVFIFPPKPKDVLTITLTPKVTCVVVDISKDDPEVQFSWFVDDVEVHTAQTQPREEQFNSTFRSVSELPIMHQDWLNGKEFKCRVDSDAFPAPIEKTISKTKGRPKAPQVYTIPPPKEQMAKDKVSLTCMITDFFPEDITVEWQWNGQPAENYKNTQPIMDTDGSYFVYSKLNVQKSNWEAGNTFTCSVLHEGLHNHHTEKSLSHSPGK
light: not shown
notes: CH name; VH H237 + CH, L chain MRAL-k0; copies: 2 + 2
[1]
  Relative mFcγRII-binding activity (MB630 = 1): 2.29 fold
[2]
  Relative mFcγRIII-binding activity (MB630 = 1): 2.85 fold
[3]
  relative mFcγRII-binding activity (mIgG1 = 1): 24.9 fold
[4]
  relative mFcγRIII-binding activity (mIgG1 = 1): 0.49 fold

B2: MB791 (antibody, mouse IgG1, kappa)
heavy: QVQLQESGPGLVKPSETLSLTCAVSGHSISHDHAWSWVRQPPGEGLEWIGFISYSGITNYNPSLQGRVTISRDNSKNTLYLQMNSLRAEDTAVYYCARSLARTTAMDYWGEGTLVTVSSAKTTPPSVYPLAPGSAAQTNSMVTLGCLVKGYFPEPVTVTWNSGSLSSGVHTFPAVLQSDLYTLSSSVTVPSSTWPSETVTCNVAHPASSTKVDKKIVPRDCGCKPCICEPNEVELVFIFPPKPKDVLTITLTPKVTCVVVDISKDDPEVQFSWFVDDVEVHTAQTQPREELFNSTFRSVSELPIMHQDWLNGKEFKCRVDSDAFPAPIERTISKTKGRPKAPQVYTIPPPKEQMAKDKVSLTCMITDFFPEDITVEWQWNGQPAENYKNTQPIMDTDGSYFVYSKLNVQKSNWEAGNTFTCSVLHEGLHNHHTEKSLSHSPGK
light: not shown
notes: as for B1
[1]
  Relative mFcγRII-binding activity (MB630 = 1): 3.7 fold
[2]
  Relative mFcγRIII-binding activity (MB630 = 1): 6.43 fold
[3]
  relative mFcγRII-binding activity (mIgG1 = 1): 40.1 fold
[4]
  relative mFcγRIII-binding activity (mIgG1 = 1): 1.1 fold

B3: MB788 (antibody, mouse IgG1, kappa)
heavy: QVQLQESGPGLVKPSETLSLTCAVSGHSISHDHAWSWVRQPPGEGLEWIGFISYSGITNYNPSLQGRVTISRDNSKNTLYLQMNSLRAEDTAVYYCARSLARTTAMDYWGEGTLVTVSSAKTTPPSVYPLAPGSAAQTNSMVTLGCLVKGYFPEPVTVTWNSGSLSSGVHTFPAVLQSDLYTLSSSVTVPSSTWPSETVTCNVAHPASSTKVDKKIVPRDCGCKPCICEPNEVELVFIFPPKPKDVLTITLTPKVTCVVVDISKDDPEVQFSWFVDDVEVHTAQTQPREELFNSTFRSVSELPIMHQDWLNGKEFKCRVDSAAFPAPIERTISKTKGRPKAPQVYTIPPPKEQMAKDKVSLTCMITDFFPEDITVEWQWNGQPAENYKNTQPIMDTDGSYFVYSKLNVQKSNWEAGNTFTCSVLHEGLHNHHTEKSLSHSPGK
light: not shown
notes: as for B1
[1]
  Relative mFcγRII-binding activity (MB630 = 1): 2.06 fold
[2]
  Relative mFcγRIII-binding activity (MB630 = 1): 3.46 fold
[3]
  relative mFcγRII-binding activity (mIgG1 = 1): 22.4 fold
[4]
  relative mFcγRIII-binding activity (mIgG1 = 1): 0.59 fold

B4: MB789 (antibody, mouse IgG1, kappa)
heavy: QVQLQESGPGLVKPSETLSLTCAVSGHSISHDHAWSWVRQPPGEGLEWIGFISYSGITNYNPSLQGRVTISRDNSKNTLYLQMNSLRAEDTAVYYCARSLARTTAMDYWGEGTLVTVSSAKTTPPSVYPLAPGSAAQTNSMVTLGCLVKGYFPEPVTVTWNSGSLSSGVHTFPAVLQSDLYTLSSSVTVPSSTWPSETVTCNVAHPASSTKVDKKIVPRDCGCKPCICEPNEVELVFIFPPKPKDVLTITLTPKVTCVVVDISKDDPEVQFSWFVDDVEVHTAQTQPREELFNSTFRSVSELPIMHQDWLNGKEFKCRVNSDAFPAPIERTISKTKGRPKAPQVYTIPPPKEQMAKDKVSLTCMITDFFPEDITVEWQWNGQPAENYKNTQPIMDTDGSYFVYSKLNVQKSNWEAGNTFTCSVLHEGLHNHHTEKSLSHSPGK
light: not shown
notes: as for B1
[1]
  Relative mFcγRII-binding activity (MB630 = 1): 2.84 fold
[2]
  Relative mFcγRIII-binding activity (MB630 = 1): 4.79 fold
[3]
  relative mFcγRII-binding activity (mIgG1 = 1): 30.9 fold
[4]
  relative mFcγRIII-binding activity (mIgG1 = 1): 0.82 fold

B5: MB786 (antibody, mouse IgG1, kappa)
heavy: QVQLQESGPGLVKPSETLSLTCAVSGHSISHDHAWSWVRQPPGEGLEWIGFISYSGITNYNPSLQGRVTISRDNSKNTLYLQMNSLRAEDTAVYYCARSLARTTAMDYWGEGTLVTVSSAKTTPPSVYPLAPGSAAQTNSMVTLGCLVKGYFPEPVTVTWNSGSLSSGVHTFPAVLQSDLYTLSSSVTVPSSTWPSETVTCNVAHPASSTKVDKKIVPRDCGCKPCICEPNEVELVFIFPPKPKDVLTITLTPKVTCVVVDISKDDPEVQFSWFVDDVEVHTAQTQPREEQFNSTFRSVSELPIMHQDWLNGKEFKCRVNSDAFPAPIERTISKTKGRPKAPQVYTIPPPKEQMAKDKVSLTCMITDFFPEDITVEWQWNGQPAENYKNTQPIMDTDGSYFVYSKLNVQKSNWEAGNTFTCSVLHEGLHNHHTEKSLSHSPGK
light: not shown
notes: as for B1
[1]
  Relative mFcγRII-binding activity (MB630 = 1): 2.5 fold
[2]
  Relative mFcγRIII-binding activity (MB630 = 1): 3.33 fold
[3]
  relative mFcγRII-binding activity (mIgG1 = 1): 27.2 fold
[4]
  relative mFcγRIII-binding activity (mIgG1 = 1): 0.57 fold

B6: MB807 (antibody, mouse IgG1, kappa)
heavy: QVQLQESGPGLVKPSETLSLTCAVSGHSISHDHAWSWVRQPPGEGLEWIGFISYSGITNYNPSLQGRVTISRDNSKNTLYLQMNSLRAEDTAVYYCARSLARTTAMDYWGEGTLVTVSSAKTTPPSVYPLAPGSAAQTNSMVTLGCLVKGYFPEPVTVTWNSGSLSSGVHTFPAVLQSDLYTLSSSVTVPSSTWPSETVTCNVAHPASSTKVDKKIVPRDCGCKPCICEPNEVELVFIFPPKPKDVLTITLTPKVTCVVVDISKDDPEVQFSWFVDDVEVHTAQTQPREELFNSTFRSVSELPIMHQDWLNGKEFKCRVMSAAFPAPIEKTISKTKGRPKAPQVYTIPPPKEQMAKDKVSLTCMITDFFPEDITVEWQWNGQPAENYKNTQPIMDTDGSYFVYSKLNVQKSNWEAGNTFTCSVLHEGLHNHHTEKSLSHSPGK
light: not shown
notes: as for B1
[1]
  Relative mFcγRII-binding activity (MB630 = 1): 1.67 fold
[2]
  Relative mFcγRIII-binding activity (MB630 = 1): 2.11 fold
[3]
  relative mFcγRII-binding activity (mIgG1 = 1): 21.9 fold
[4]
  relative mFcγRIII-binding activity (mIgG1 = 1): 0.49 fold

B7: MB790 (antibody, mouse IgG1, kappa)
heavy: QVQLQESGPGLVKPSETLSLTCAVSGHSISHDHAWSWVRQPPGEGLEWIGFISYSGITNYNPSLQGRVTISRDNSKNTLYLQMNSLRAEDTAVYYCARSLARTTAMDYWGEGTLVTVSSAKTTPPSVYPLAPGSAAQTNSMVTLGCLVKGYFPEPVTVTWNSGSLSSGVHTFPAVLQSDLYTLSSSVTVPSSTWPSETVTCNVAHPASSTKVDKKIVPRDCGCKPCICEPNEVELVFIFPPKPKDVLTITLTPKVTCVVVDISKDDPEVQFSWFVDDVEVHTAQTQPREEQFNSTFRSVSELPIMHQDWLNGKEFKCRVDSDAFPAPIERTISKTKGRPKAPQVYTIPPPKEQMAKDKVSLTCMITDFFPEDITVEWQWNGQPAENYKNTQPIMDTDGSYFVYSKLNVQKSNWEAGNTFTCSVLHEGLHNHHTEKSLSHSPGK
light: not shown
notes: as for B1
[1]
  Relative mFcγRII-binding activity (MB630 = 1): 3.08 fold
[2]
  Relative mFcγRIII-binding activity (MB630 = 1): 4.09 fold
[3]
  relative mFcγRII-binding activity (mIgG1 = 1): 33.5 fold
[4]
  relative mFcγRIII-binding activity (mIgG1 = 1): 0.7 fold

B8: MB787 (antibody, mouse IgG1, kappa)
heavy: QVQLQESGPGLVKPSETLSLTCAVSGHSISHDHAWSWVRQPPGEGLEWIGFISYSGITNYNPSLQGRVTISRDNSKNTLYLQMNSLRAEDTAVYYCARSLARTTAMDYWGEGTLVTVSSAKTTPPSVYPLAPGSAAQTNSMVTLGCLVKGYFPEPVTVTWNSGSLSSGVHTFPAVLQSDLYTLSSSVTVPSSTWPSETVTCNVAHPASSTKVDKKIVPRDCGCKPCICEPNEVELVFIFPPKPKDVLTITLTPKVTCVVVDISKDDPEVQFSWFVDDVEVHTAQTQPREELFNSTFRSVSELPIMHQDWLNGKEFKCRVDSDAFPAPIEKTISKTKGRPKAPQVYTIPPPKEQMAKDKVSLTCMITDFFPEDITVEWQWNGQPAENYKNTQPIMDTDGSYFVYSKLNVQKSNWEAGNTFTCSVLHEGLHNHHTEKSLSHSPGK
light: not shown
notes: as for B1
[1]
  Relative mFcγRII-binding activity (MB630 = 1): 3.55 fold
[2]
  Relative mFcγRIII-binding activity (MB630 = 1): 5.57 fold
[3]
  relative mFcγRII-binding activity (mIgG1 = 1): 38.5 fold
[4]
  relative mFcγRIII-binding activity (mIgG1 = 1): 0.96 fold
